Data from patent US20100166734A1 (published 2010).
Positions count from the first letter of the chain named. Each block holds one binder with its values, some of them ahead of it.

How the values were obtained:
[1] = target: T1, human serum albumin (human, UniProt P02768 25-609); assay: SPR (Biacore), HSA amine-coupled on CM5, pH 5
T1 construct: also called HSA

[2] = target: T1, human serum albumin; assay: SPR (Biacore), HSA amine-coupled on CM5, pH 7
[3] = target: T1, human serum albumin; assay: SPR (Biacore), ratio of the off rates at the two pH
[4] = target: T2, ectodomain of human pIgR (R&D Systems Cat #2717-PG) (human, UniProt P01833 19-638); assay: competition ELISA, dilution series of purified Nanobody against 1 ug/ml IgA on immobilised pIgR ectodomain
T2 construct: extracellular domain; Immobilised on Maxisorp plates at 5 ug/ml; also called pIgR ectodomain
T2 sequence (P01833 19-638): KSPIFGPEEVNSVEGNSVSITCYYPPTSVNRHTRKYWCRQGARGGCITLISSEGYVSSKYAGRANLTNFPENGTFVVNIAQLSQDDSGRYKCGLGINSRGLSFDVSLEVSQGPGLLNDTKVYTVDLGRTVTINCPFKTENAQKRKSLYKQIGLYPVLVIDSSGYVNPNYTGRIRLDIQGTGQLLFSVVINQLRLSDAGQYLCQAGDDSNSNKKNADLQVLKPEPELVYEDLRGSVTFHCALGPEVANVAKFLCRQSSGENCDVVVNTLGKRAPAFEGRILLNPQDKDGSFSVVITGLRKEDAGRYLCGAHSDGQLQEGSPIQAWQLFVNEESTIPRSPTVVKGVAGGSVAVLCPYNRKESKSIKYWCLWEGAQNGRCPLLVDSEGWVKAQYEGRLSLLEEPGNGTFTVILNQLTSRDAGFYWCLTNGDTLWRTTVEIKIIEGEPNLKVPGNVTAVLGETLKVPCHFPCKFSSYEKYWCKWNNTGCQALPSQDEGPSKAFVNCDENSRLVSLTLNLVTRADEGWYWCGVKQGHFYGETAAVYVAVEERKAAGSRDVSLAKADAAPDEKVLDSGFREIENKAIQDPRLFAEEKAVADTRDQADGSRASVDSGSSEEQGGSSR

[5] = target: T3, human pIgR overexpressed in MDCK cells (human, UniProt P01833 19-764); assay: immunofluorescence on MDCK cells overexpressing human pIgR, 3 uM purified Nanobody at 4C, anti-myc detection
T3 construct: whole, on cells; also called hpIgR; human polymeric immunoglobulin receptor
T3 sequence (P01833 19-764): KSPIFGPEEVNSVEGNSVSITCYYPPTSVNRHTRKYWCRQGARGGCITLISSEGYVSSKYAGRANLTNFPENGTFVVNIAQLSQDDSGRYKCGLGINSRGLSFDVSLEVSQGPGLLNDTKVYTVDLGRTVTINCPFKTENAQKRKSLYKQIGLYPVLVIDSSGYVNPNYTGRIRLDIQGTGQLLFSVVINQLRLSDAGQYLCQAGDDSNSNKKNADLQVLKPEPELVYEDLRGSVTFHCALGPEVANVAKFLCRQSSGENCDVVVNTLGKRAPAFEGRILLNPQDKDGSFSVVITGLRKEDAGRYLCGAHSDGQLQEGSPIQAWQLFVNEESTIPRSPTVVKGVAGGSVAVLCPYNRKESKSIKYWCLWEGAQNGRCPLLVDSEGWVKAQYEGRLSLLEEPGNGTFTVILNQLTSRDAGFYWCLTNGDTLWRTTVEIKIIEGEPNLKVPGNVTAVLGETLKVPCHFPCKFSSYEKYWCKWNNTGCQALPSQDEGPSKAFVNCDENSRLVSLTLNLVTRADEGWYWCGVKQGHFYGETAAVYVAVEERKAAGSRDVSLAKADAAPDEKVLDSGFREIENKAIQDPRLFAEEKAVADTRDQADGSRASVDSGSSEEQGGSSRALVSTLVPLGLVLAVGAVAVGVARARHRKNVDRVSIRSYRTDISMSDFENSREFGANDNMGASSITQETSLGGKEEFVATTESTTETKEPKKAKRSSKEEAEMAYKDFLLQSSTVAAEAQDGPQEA

[6] = target: T3, human pIgR overexpressed in MDCK cells; assay: immunoprecipitation from cell lysates with His-tagged nanobodies on talon beads, blot with a-hSC

B2: 4A9 (VHH)
VHH: EVQLVESGGGLVQAGGSLRLSCEASGFTLDYSGVGWFRQAPGKERELVSCISRGGDRAGYANSVKGRFTMSRDNAKNILYLQMNSLKPEDTAVYYCAATHSGSGCYDGAIDYWGKGTLVTVSS
notes: Tested as periplasmic extract
koff [1]: 0.00701 s⁻¹ | koff [2]: 0.013 s⁻¹ | Ratio pH 7/pH 5 [3]: 0.54

B3: 4A2 (VHH)
VHH: EVQLVESGGGLVQAGGSLRLSCAASGLSFSSYAMGWFRQAPGKEREFVAAIRRREGNSYYADSVKGRFTISRDSAKNTVYLQMNSLKPEDTALYSCAATAPHYSGSFAYAGGYDYWGQGTQVTVSS
notes: Tested as periplasmic extract
koff [1]: 0.0227 s⁻¹ | koff [2]: 0.00642 s⁻¹ | Ratio pH 7/pH 5 [3]: 3.54

B4: 4C4 (VHH)
VHH: EVQLVESGGGLVQAGDSLRLSCAASGRPFMSYVMGWFRRAPGKEREFVGGINWGSGNTWYTDSVLGRFTISRDNAKNTVYLQMNSLKPEDTAVYYCATAAGVGYYRYERQYDYWGQGTQVTVSS
notes: Tested as periplasmic extract
koff [1]: 0.00121 s⁻¹ | koff [2]: 0.000499 s⁻¹ | Ratio pH 7/pH 5 [3]: 2.42

B8: 1D2 (VHH)
VHH: EVQLVESGGGLVQPGGSLRLSCAASGFTLDYYAIGWFRRAPGKEREGVSCTSSSDGSTYYADSVKGRFTISRDNAKNTVYLQMNSLKPEDTAVYYCATTFGDACTVVAGIPDQYDFGSWGQGTQVTVSS
notes: Carries myc and His tags
binding result [4]: binds | binding result [5]: binds

B11: 4B8 (VHH)
VHH: EVQLVESGGGLVQAGGSLRLSCAASGGTYSGNAMAWFRQAPGKEREFVAGIDWSSENTRYIDSVKGRFTISRDNAKNTMYLQMNSLKPEDTAVYYCAAGTSWGALASRLEAAYSSWGQGTQVTVSS
notes: Tested as periplasmic extract
koff [1]: 0.0018 s⁻¹ | koff [2]: 0.000741 s⁻¹ | Ratio pH 7/pH 5 [3]: 2.43

B12: 4B6 (VHH)
VHH: B11 VHH with E1K, A14V, A23V, G27R, S30G, I61T, A111N, S115A
notes: Tested as periplasmic extract
koff [1]: 0.00119 s⁻¹ | koff [2]: 0.000368 s⁻¹ | Ratio pH 7/pH 5 [3]: 3.23

B13: 4B5 (VHH)
VHH: B11 VHH with G16D, G27R, G31R, N77S
notes: Tested as periplasmic extract
koff [1]: 0.00403 s⁻¹ | koff [2]: 0.00174 s⁻¹ | Ratio pH 7/pH 5 [3]: 2.32

B14: 4C3 (VHH)
VHH: EVQLVESGGGLVQAGGSLRLSCAASGRTFSSYAMAWFRQAPGEEREFVATISVSGGYTYYADSVKGRFTISRDNAKNTVYLQMNTLKPEDTAVYYCAAGDSSSWLEHMYDYWGQGTQVTVSS
notes: Tested as periplasmic extract
koff [1]: 0.00375 s⁻¹ | koff [2]: 0.00112 s⁻¹ | Ratio pH 7/pH 5 [3]: 3.35

B18: 4A6 (VHH)
VHH: EVQLVESGGGLVQPGGSLRLSCAASPFTLDYYAIGWFRQAPGKEREGVSCSTSHGKTYHADSVKGRFTISRDNAKNTVYLQMNSLKPEDTAVYYCAAGACMGGSGYEADFGSWGQGTQVTVSS
notes: Tested as periplasmic extract
koff [1]: 0.00999 s⁻¹ | koff [2]: 0.00173 s⁻¹ | Ratio pH 7/pH 5 [3]: 5.77

B19: 4B1 (VHH)
VHH: B18 VHH with A23V, S25A, P26G, S51I, H54D, K56R, H59Y, N73M, N76K, T77M
notes: Tested as periplasmic extract
koff [1]: 0.00773 s⁻¹ | koff [2]: 0.00875 s⁻¹ | Ratio pH 7/pH 5 [3]: 0.88

B20: 4D5 (VHH)
VHH: EVQLVESGGGLVQAGGSLRLSCAASGLSFSKYAMGWFRQAPGKQREYVAVISSSDTTYYTNSAKGRFTISRDNAENTVYLQMNSLKPEDTAVYFCAADSYVTALQTLTQISYWGQGTQVTVSS
notes: Tested as periplasmic extract
koff [1]: 0.0263 s⁻¹ | koff [2]: 0.0204 s⁻¹ | Ratio pH 7/pH 5 [3]: 1.29

B25: 4B10 (VHH)
VHH: EVQLVESGGGLVQAGDSLRLSCAASGRTFSSYAMGWFRQAPGTERQFVARITGKGDSTDYADSVRGRFTISRDNAKNTVYLQMNSLKPEDTAVYYCAADAFNSLLQAGRAEYWGQGTQVTVSS
notes: Tested as periplasmic extract
koff [1]: 0.0434 s⁻¹ | koff [2]: 0.0499 s⁻¹ | Ratio pH 7/pH 5 [3]: 0.87

Now from value to binder:

koff [1]: 0.0137 s⁻¹ | koff [2]: 0.00565 s⁻¹ | Ratio pH 7/pH 5 [3]: 2.42
B1: 4D3 (VHH)
VHH: EVQLVKSGGGLVQPGGSLRLSCAASGFTFSHYQMSWVRQAPGKDVEWVSSISMLGGGTTYADSVKGRFTISRDNAKSTLVLQMNNLKVEDTAVYYCARGFSGNYYRADLGQGTQVTVSS
notes: Tested as periplasmic extract

koff [1]: 0.00132 s⁻¹ | koff [2]: 0.000541 s⁻¹ | Ratio pH 7/pH 5 [3]: 2.44
B5: 4C5 (VHH)
VHH: B4 VHH with M30S, S31A, G54N, G56A, R72K, T98A, A100G
notes: Tested as periplasmic extract

koff [1]: 0.00158 s⁻¹ | koff [2]: 0.000653 s⁻¹ | Ratio pH 7/pH 5 [3]: 2.42
B6: 4D7 (VHH)
VHH: B4 VHH with M30S, G54N, T61S, Y80D, A100S
notes: Tested as periplasmic extract

koff [1]: 0.00341 s⁻¹ | koff [2]: 0.000523 s⁻¹ | Ratio pH 7/pH 5 [3]: 6.52
B7: 4D10 (VHH)
VHH: EVQLVESGGGLVQAGDSLRLSCTASERPFMSYVMGWFRRAPGKDREFVGAITWSGINTWYSDSVLGRFTISRDNAKNTVYLQMNSLKPEDTAVYYCAVADGVGLYRYERQYDYWGQGTQVTVSS
notes: Tested as periplasmic extract

binding result [4]: binds
B9: 4D9 (VHH)
VHH: B8 VHH with A33D, R39Q

binding result [6]: binds
B10: 4B7 (VHH)
VHH: EVQLVESGGGLVQAGGSLRLSCAASGFTFDDYAIGWFRQAPGKEREGVSCISSRDGITYYADSVKGRFTISSDNAKNTVYLQMNSLKPEDTAVYYCAADLVGSFPCPVAAYDYWGQGTQVTVSS
notes: Carries myc and His tags

binding result [6]: binds | binding result [4]: binds
B15: 1D7 (VHH)
VHH: EVQLVESGGGLVQSGGSLRLSCAASGRAFNYYAMGWFRQAPGKERELVAVINWSGGTTSYADSVKGRFTISRSNAKNTVYLQMSSLKPEDTAVYYCAADSIYRTSKDYNYWGQGTQVTVSS
notes: Carries myc and His tags (detected with anti-myc, pulled down on talon beads)

koff [1]: 0.00209 s⁻¹ | koff [2]: 0.000624 s⁻¹ | Ratio pH 7/pH 5 [3]: 3.35
B16: 4C8 (VHH)
VHH: EVQLVESGGGLVQAGDSLRLSCAASGRTYTPYVMGWFRRAPGKEREFVGAVSWSGTNTWYTDSVKGRFTISRDNAKNTVYLQMNSLKPEDTAVYYCAAGDGVGIYRYEHQYDYWGQGTQVTVSS
notes: Tested as periplasmic extract

koff [1]: 0.00171 s⁻¹ | koff [2]: 0.000441 s⁻¹ | Ratio pH 7/pH 5 [3]: 3.88
B17: 4C9 (VHH)
VHH: EVQLVESGGGLVQAGDSLRLSCTASERPFSTYVMGWFRRAPGKEREFVGGITWSGINAWYTDSVLGRFTISSDNAKNTVYLQMNSLKPEDTAVYYCAAASGVGRYRYELQYDYWGQGTQVTVSS
notes: Tested as periplasmic extract

koff [1]: 0.0312 s⁻¹ | koff [2]: 0.0263 s⁻¹ | Ratio pH 7/pH 5 [3]: 1.19
B21: 4C11 (albumin binder) (VHH)
VHH: B20 VHH with K31R, Y100F, S111N
notes: Tested as periplasmic extract

binding result [4]: binds | binding result [5]: binds
B22: 1E7 (VHH)
VHH: EVQLVESGGGLVQAGGSLRLSCAASGRTFSNYVMGWFRQAPGKEREFVAAISWSGVTTYHYSADSVKGRFTTSRDNDRNTAHLQMNSLKPEDTAVYYCAARGRTGSDPRKGDDYDYWGQGTQVTVSS
notes: Carries a myc tag (detected with anti-myc)

binding result [4]: binds | binding result [5]: binds
B23: 4B11 (VHH)
VHH: EVQLVESGGGLVQPGGSLRLSCAASGFTLDYYAIGWFRQAPGKEREGVSCISSSDMSDGITYYADSVKGRFTSSRDNVKNTVYLQMNSLKPEDTAVYYCATTFGDACTVVAGIPDQADFDSWGQGTQVTVSS
notes: Carries myc and His tags

koff [1]: 0.0166 s⁻¹ | koff [2]: 0.00602 s⁻¹ | Ratio pH 7/pH 5 [3]: 2.76
B24: 4D4 (VHH)
VHH: EVQLVESGGGLVQAGDSLRLSCAASGRTFSPYVMGWFRRAPGKEREFVGGINWSGSNTWYTDSVKGRFTISRDNVKNMVYLQMNSLKPEDTAVYYCAAGSGVGMYRYERQYDYWGQGTQVTVSS
notes: Tested as periplasmic extract
